Molecular target: GLP-1 receptor (UniProt P43220)
Assay: cell-based or functional assay

Chain of GLP-1 receptor (P43220 24-463 limits assumed): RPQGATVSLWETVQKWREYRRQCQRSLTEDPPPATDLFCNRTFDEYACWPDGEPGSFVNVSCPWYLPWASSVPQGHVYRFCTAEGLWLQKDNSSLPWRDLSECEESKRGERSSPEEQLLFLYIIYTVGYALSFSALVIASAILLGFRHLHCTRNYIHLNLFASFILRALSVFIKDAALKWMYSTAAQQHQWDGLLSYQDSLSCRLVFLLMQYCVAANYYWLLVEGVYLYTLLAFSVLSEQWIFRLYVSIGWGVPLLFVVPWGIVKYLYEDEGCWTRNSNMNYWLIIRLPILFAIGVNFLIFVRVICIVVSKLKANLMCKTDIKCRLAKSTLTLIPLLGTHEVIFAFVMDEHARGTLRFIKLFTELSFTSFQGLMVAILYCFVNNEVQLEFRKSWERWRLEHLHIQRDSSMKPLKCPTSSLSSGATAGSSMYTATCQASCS

Exendin-4 (peptide)
cAMP EC50 (fold-Ex-4); GLP-1R only cells: 1 fold
cAMP EC50 (fold-Ex-4); GLP-1R/FGFR1c/beta-klotho cells: 1 fold
cAMP EC50 (nM); GLP-1R only cells: 11 nM
cAMP EC50 (nM); GLP-1R/FGFR1c/beta-klotho cells: 6 nM
cAMP y-max (% Ex-4); GLP-1R only cells: 100%
cAMP y-max (% Ex-4); GLP-1R/FGFR1c/beta-klotho cells: 100%
